Blank lines part the entries; values can stand above or below the binder they belong to.
Columns and labels:
FGF receptor-2 (bek) = molecular target: T1, FGF receptor-2 (bek) (UniProt P21803 22-821, limits assumed); test: competition with 125I-bFGF on CHO 3-7.5 cells expressing FGF receptor-2
T1 construct: whole, on cells; also called CHO 3-7.5 cells

FGF receptor-1 (flg) [1] = molecular target: T2, FGF receptor-1 (flg) (UniProt P16092 22-822, limits assumed); test: Scatchard analysis, 125I-labeled ligand on CHO 4-1 cells expressing FGF receptor-1, 4 C
T2 construct: whole, on cells; also called flg receptor; CHO 4-1 cells
Method: Scatchard analysis of the binding of K-FGF and K-FGF-140 was performed on CHO 4-1 cells expressing the FGF receptor-1 as follows. Cells at 4.8×10^5/35mm dish were incubated at 4° C. with DMEM containing 0.15% gelatin, […].
In FIG. 7, Scatchard analysis of binding to high affinity receptors gave a straight line, indicating a single class of binding sites.

FGF receptor-1 (flg) [2] = molecular target: T2, FGF receptor-1 (flg); test: competition with 125I-bFGF on CHO 4-1 cells expressing FGF receptor-1

T2 sequence (P16092 22-822 limits assumed): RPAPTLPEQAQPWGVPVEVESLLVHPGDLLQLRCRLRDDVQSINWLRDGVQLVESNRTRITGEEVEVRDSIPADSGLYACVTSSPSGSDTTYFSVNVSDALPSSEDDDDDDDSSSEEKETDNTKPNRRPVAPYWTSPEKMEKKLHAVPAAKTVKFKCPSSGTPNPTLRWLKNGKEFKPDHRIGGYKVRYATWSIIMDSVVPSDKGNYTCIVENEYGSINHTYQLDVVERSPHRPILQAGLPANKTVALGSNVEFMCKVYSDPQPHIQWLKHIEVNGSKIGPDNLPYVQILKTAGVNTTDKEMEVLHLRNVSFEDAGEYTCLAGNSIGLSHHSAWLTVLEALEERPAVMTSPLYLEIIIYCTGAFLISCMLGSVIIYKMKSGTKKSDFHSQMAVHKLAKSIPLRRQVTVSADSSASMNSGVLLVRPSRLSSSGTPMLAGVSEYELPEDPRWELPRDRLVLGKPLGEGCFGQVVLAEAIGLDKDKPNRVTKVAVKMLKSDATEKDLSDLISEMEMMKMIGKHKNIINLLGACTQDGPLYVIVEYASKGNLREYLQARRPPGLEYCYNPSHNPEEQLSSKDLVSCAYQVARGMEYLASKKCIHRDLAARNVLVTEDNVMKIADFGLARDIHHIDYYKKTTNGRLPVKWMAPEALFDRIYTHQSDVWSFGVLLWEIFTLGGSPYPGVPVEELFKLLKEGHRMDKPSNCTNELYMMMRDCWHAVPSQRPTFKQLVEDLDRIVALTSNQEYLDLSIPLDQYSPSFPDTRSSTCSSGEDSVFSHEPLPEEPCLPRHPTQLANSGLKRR
T1 sequence (P21803 22-821 limits assumed): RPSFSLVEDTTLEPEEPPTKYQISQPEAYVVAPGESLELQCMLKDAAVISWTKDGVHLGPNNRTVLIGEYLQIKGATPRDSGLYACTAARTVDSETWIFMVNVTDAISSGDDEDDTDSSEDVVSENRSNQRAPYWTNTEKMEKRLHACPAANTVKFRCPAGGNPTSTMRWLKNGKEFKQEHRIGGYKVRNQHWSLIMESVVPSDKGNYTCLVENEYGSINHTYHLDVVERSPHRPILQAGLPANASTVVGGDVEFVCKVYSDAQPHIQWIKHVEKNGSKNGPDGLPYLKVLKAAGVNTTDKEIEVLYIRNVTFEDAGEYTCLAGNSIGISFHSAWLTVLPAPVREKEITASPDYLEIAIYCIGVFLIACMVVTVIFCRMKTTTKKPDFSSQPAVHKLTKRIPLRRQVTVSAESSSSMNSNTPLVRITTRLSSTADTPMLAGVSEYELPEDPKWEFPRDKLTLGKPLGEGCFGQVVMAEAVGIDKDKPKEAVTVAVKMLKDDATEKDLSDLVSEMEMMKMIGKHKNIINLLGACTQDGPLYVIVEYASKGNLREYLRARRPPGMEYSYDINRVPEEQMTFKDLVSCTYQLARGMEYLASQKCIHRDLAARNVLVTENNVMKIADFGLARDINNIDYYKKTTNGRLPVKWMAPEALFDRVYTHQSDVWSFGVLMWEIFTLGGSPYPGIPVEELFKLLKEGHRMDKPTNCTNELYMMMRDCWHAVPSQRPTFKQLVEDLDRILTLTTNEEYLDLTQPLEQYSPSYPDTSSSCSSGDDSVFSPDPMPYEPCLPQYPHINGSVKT

fold higher affinity than bFGF or full-length K-FGF (FGF receptor-2 (bek)): ~3 fold | Kd (FGF receptor-1 (flg) [1]): ~0.095 nM | fold higher affinity than full-length K-FGF (FGF receptor-1 (flg) [1]): ~3 fold
B1: K-FGF-140 (truncated K-FGF) (ligand)
chain: AAVQSGAGDYLLGIKRLRRLYCNVGIGFHLQALPDGRIGGAHADTRDSLLELSPVERGVVSIFGVASRFFVAMSSKGKLYGSPFFTDECTFKEILLPNNYNAYESYKYPGMFIALSKNGKTKKGNRVSPTMKVTHFLPRL
notes: Unglycosylated, 140 residues, about 14,000 Daltons; also called truncated mammalian growth factor; truncated protein

fold more competitor needed than bFGF or K-FGF-140 (FGF receptor-1 (flg) [2]): ~8 fold | Kd (FGF receptor-1 (flg) [1]): ~0.285 nM
B2: K-FGF (full-length mature human growth factor) (ligand)
chain: APTAPNGTLEAELERRWESLVALSLARLPVAAQPKEAAVQSGAGDYLLGIKRLRRLYCNVGIGFHLQALPDGRIGGAHADTRDSLLELSPVERGVVSIFGVASRFFVAMSSKGKLYGSPFFTDECTFKEILLPNNYNAYESYKYPGMFIALSKNGKTKKGNRVSPTMKVTHFLPRL
notes: also called full-length K-FGF; FGF-4

Source: US6432702 (NEW YORK UNIVERSITY, dated 2002)
